Data reported in article PMC12141571.
Like-named read-outs stand apart in the source and are kept apart here.

Erk1: R84H+T207A vs R84H (HEK293, no EGF; TEY phosphorylation)
other (phosphorylation at T207): increases

Erk1: T207A (HEK293 + EGF; TEY phosphorylation)
other (phosphorylation at T207): increases

Erk1: T207A (HEK293, no EGF; TEY phosphorylation)
other (phosphorylation at T207): increases, 2–6 fold

Erk1: T207A (recombinant protein, in vitro kinase assay)
enzymatic_activity (phosphorylation at T207): abolishes

Erk1: T207E, T207D (HEK293 + EGF; TEY phosphorylation)
other (phosphorylation at T207): increases

Erk1: T207E, T207D (recombinant protein, in vitro kinase assay)
enzymatic_activity (phosphorylation at T207): abolishes

Erk2: R65H+T188A vs R65H (HEK293, no EGF; TEY phosphorylation)
other (phosphorylation at T188): increases

Erk2: R65H+T188E, R65H+T188D (recombinant; dual TEY autophosphorylation)
other (phosphorylation at T188): decreases

Erk2: T188A (HEK293 + EGF; TEY phosphorylation)
other (phosphorylation at T188): increases

Erk2: T188A (HEK293, no EGF; TEY phosphorylation)
other (phosphorylation at T188): increases, 2–6 fold

Erk2: T188A (recombinant protein, in vitro kinase assay)
enzymatic_activity (phosphorylation at T188): abolishes

Erk2: T188A (recombinant; dual TEY phosphorylation by MEK1EE in vitro)
other (phosphorylation at T188): decreases, 2.2% doubly phosphorylated (Erk2WT 12.5%)

Erk2: T188A (recombinant; spontaneous Tyr185 autophosphorylation)
other (phosphorylation at T188): increases, 84% monophosphorylated on Tyr185

Erk2: T188C
enzymatic_activity (phosphorylation at T188): no change

Erk2: T188D (recombinant; dual TEY phosphorylation by MEK1EE in vitro)
other (phosphorylation at T188): decreases, 2.2% dually phosphorylated (Erk2WT 12.5%)

Erk2: T188E, T188D (HEK293 + EGF; TEY phosphorylation)
other (phosphorylation at T188): increases

Erk2: T188E, T188D (recombinant protein, in vitro kinase assay)
enzymatic_activity (phosphorylation at T188): abolishes

Erk2: T188G
enzymatic_activity (phosphorylation at T188): decreases, to about 6%

Erk2: T188N
enzymatic_activity (phosphorylation at T188): abolishes

Erk2: T188S
enzymatic_activity (phosphorylation at T188): increases
